The supplement of paper PMC9112550, “Optimization of the antimicrobial peptide Bac7 by deep mutational scanning” (BMC Biology, 2022)

test system: Escherichia coli TOP10; test: shrunken log2 fold change of peptide-encoding DNA abundance (4.5 h post-induction vs induction); higher = less antimicrobial activity (less host growth inhibition); settings: time post-induction: 4.5 h; library: site-saturation at positions 5, 18, 19, 20
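Note: peptides expressed intracellularly from a pBAD plasmid library in pooled LB shake-flask culture, induced with 0.3% L-arabinose, DNA abundance read by NGS, three biological replicates, DESeq2 with apeglm shrinkage.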

Sequence | shrunken log2 fold change
RRIRHRPPRLPRPRPRPWQRPRP | -0.1
RRIRERPPRLPRPRPRPQYIPRP | -0.219
RRIRCRPPRLPRPRPRPYLLPRP | -0.559
RRIRGRPPRLPRPRPRPDYGPRP | 0.0184
RRIRSRPPRLPRPRPRPGWHPRP | 0.234
RRIRRRPPRLPRPRPRPPAMPRP | 0.814
RRIRVRPPRLPRPRPRPKFSPRP | 0.0178
RRIRERPPRLPRPRPRPYWAPRP | -0.888
RRIRARPPRLPRPRPRPYVCPRP | -0.255
RRIRPRPPRLPRPRPRPQSKPRP | -0.237
RRIRFRPPRLPRPRPRPHFGPRP | -0.197
RRIRMRPPRLPRPRPRPPWKPRP | 0.567
RRIRKRPPRLPRPRPRPNWDPRP | 1.4
RRIRIRPPRLPRPRPRPDIYPRP | -0.357
RRIRYRPPRLPRPRPRPIDWPRP | 0.0205
RRIRRRPPRLPRPRPRPLEHPRP | 0.21
RRIRIRPPRLPRPRPRPYKQPRP | -0.101
RRIRCRPPRLPRPRPRPWMGPRP | 0.439
RRIRIRPPRLPRPRPRPNVVPRP | -0.508
RRIRRRPPRLPRPRPRPTLHPRP | 0.534
RRIRCRPPRLPRPRPRPSVFPRP | -0.614
RRIRWRPPRLPRPRPRPIKHPRP | -0.2
RRIRSRPPRLPRPRPRPDYQPRP | -0.242
RRIRLRPPRLPRPRPRPIFGPRP | 0.0171
RRIRERPPRLPRPRPRPYECPRP | -0.0425

Sequence | shrunken log2 fold change
RRIRQRPPRLPRPRPRPLITPRP | -0.281
RRIRFRPPRLPRPRPRPEGFPRP | 0.518
RRIRPRPPRLPRPRPRPRIFPRP | -0.0669
RRIRYRPPRLPRPRPRPWLYPRP | -0.613
RRIRIRPPRLPRPRPRPGDYPRP | -0.0189
RRIRKRPPRLPRPRPRPKCTPRP | 0.0297
RRIRYRPPRLPRPRPRPLICPRP | -0.255
RRIRPRPPRLPRPRPRPQRIPRP | 0.0114
RRIRMRPPRLPRPRPRPLAVPRP | 0.328
RRIRDRPPRLPRPRPRPKYNPRP | -0.813
RRIRQRPPRLPRPRPRPHPKPRP | -0.0646
RRIRRRPPRLPRPRPRPCKGPRP | 0.0306
RRIRMRPPRLPRPRPRPWYCPRP | -0.336
RRIRVRPPRLPRPRPRPQGPPRP | 0.107
RRIRPRPPRLPRPRPRPWYRPRP | -0.601
RRIRNRPPRLPRPRPRPQCKPRP | -0.0743
RRIRERPPRLPRPRPRPFETPRP | 0.21
RRIRNRPPRLPRPRPRPRWQPRP | -0.00911
RRIRGRPPRLPRPRPRPDIIPRP | 0.188
RRIRCRPPRLPRPRPRPIPQPRP | 0.153
RRIRSRPPRLPRPRPRPYIGPRP | -0.121
RRIRMRPPRLPRPRPRPASSPRP | -0.00458
RRIRMRPPRLPRPRPRPMFCPRP | -0.0875
RRIRNRPPRLPRPRPRPQFHPRP | -0.28
RRIRNRPPRLPRPRPRPILCPRP | -0.174

Sequence | shrunken log2 fold change
RRIRPRPPRLPRPRPRPGEPPRP | 0.0896
RRIRNRPPRLPRPRPRPQRFPRP | -0.155
RRIRKRPPRLPRPRPRPVQHPRP | 0.134
RRIRNRPPRLPRPRPRPFFWPRP | 0.0463
RRIRSRPPRLPRPRPRPYENPRP | -0.229
RRIRDRPPRLPRPRPRPCCHPRP | 0.0218
RRIRNRPPRLPRPRPRPFNKPRP | -0.72
RRIRRRPPRLPRPRPRPVYYPRP | -0.223
RRIRKRPPRLPRPRPRPGTNPRP | 0.124
RRIRNRPPRLPRPRPRPYDIPRP | -0.0698
RRIRFRPPRLPRPRPRPAAKPRP | -0.118
RRIRVRPPRLPRPRPRPNFSPRP | -0.153
RRIRGRPPRLPRPRPRPSEGPRP | 0.356
RRIRWRPPRLPRPRPRPLNEPRP | -0.0646
RRIRQRPPRLPRPRPRPTAIPRP | -0.248
RRIRIRPPRLPRPRPRPADRPRP | -0.123
RRIRHRPPRLPRPRPRPHCSPRP | -0.124
RRIRLRPPRLPRPRPRPAIIPRP | -0.197
RRIRQRPPRLPRPRPRPVFMPRP | -0.155
RRIRSRPPRLPRPRPRPHIHPRP | 0.966
RRIRTRPPRLPRPRPRPLPDPRP | -0.0997
RRIRVRPPRLPRPRPRPAPAPRP | 0.626
RRIRHRPPRLPRPRPRPSKCPRP | -1.04
RRIRERPPRLPRPRPRPENRPRP | -0.29
RRIRKRPPRLPRPRPRPATGPRP | 0.145
